In the nanobody polyreactivity screen of Harvey et al. (2022):

Assay: yeast display, Sf9 membrane polyspecificity reagent, FACS + sequencing; frameworks hold sequencing errors
Procedure, shortened: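 Genes from sorted yeast were amplified by colony PCR, read by MiSeq 2 × 250 sequencing and filtered on CDR length. These cells carried a synthetic nanobody library in Saccharomyces cerevisiae BJ5465 and were sorted by FACS into low and high (top ~1%) gates on anti-HA and streptavidin fluorescence. Polyreactivity is labelled according to the gate of origin.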

Row | Sequence | polyreactivity (PSR sort gate)
1 | QVQLEESGGGLVQAGGSHRLSCPASGRIFRANAMGWYRQAPGKERELLAAITRSGGSTYYADSVKGRFTISRDNAKNTVYLHMISLKPEDTAVYYWNARTRFDDGYDYWGQGTQVTVSS | high polyreactivity
2 | QVQLEESGGGLVQAGGSLLLSCAASGLIFYHNAMGWYIQAPGKERELVAAITASGGSTYYADSVKGRFTISRDNANNTVYLQIISLKTEDTAVYYCAADGPLDSDLDYWRQGTQVTVSS | low polyreactivity
3 | QVQLEESGGGLVQAGGSLPLICAASGRIFATYAMGWYRQAPGKARELVAAISGRGSSTYYADSVKVRFTISRDNAKNTVYLQMNSLKPEDTAVSYCAAVVRHSFGYDSWGQCTQVTVSS | high polyreactivity
4 | QVQLEESGGGLVQAGGSLRFSCAASGSIMTRNAMGWYRQPTGKEMELVAAITGSGGRTYYADSVKGRFSISRDNAKKTFFLQMTSLIPEDTAVYYCATRYGREDYWGQGTQVNVSS | high polyreactivity
5 | QVQLEESGGGLVQAGGSLRISCAASGRTIGPYAMGWYRQARGKERELVAAISGGGSTNYADSVKGRFTISRDNAKNSDYLQMNSLKPEDTAVYYCNTEYPISGEEEYWGQGTHVTVSS | low polyreactivity
6 | QVQLEESGGGLVQAGGSLRISCAASGRTLRSYAMGWYRQAPGKERELVAAISWNGGDTYADSVKGRFTISRDNAKNTVYLQMNSLKPEDTAVYYCAASRWFSRYWYGIDKYNYWGQGTQVTVSS | high polyreactivity
7 | QVQLEESGGGLVQAGGSLRISCAASGSTFWRYTMGWYRQEPGKERELVAAISWSGDGTYYADSVKGRFTISRDNAKNTVYLQMNSLKPEDTAVYYCAAEVYYANGYDYDYWGQGTQVTVSS | low polyreactivity
8 | QVQLEESGGGLVQAGGSLRISCAAYGRTLRQYALGWYRQAPGKERELVAAISRGGSTTYADSVKGRFTISRDNAKNTVYLQMNSLKPEDTAVYYCAAVSSKGNRHEYDYWGQGTQVTVSS | low polyreactivity
9 | QVQLEESGGGLVQAGGSLRLICAASGSIFYQYPMGWYRQAPGKERELVAGITWSGGSTYYADSVKGRFTISRDNAKNTVYLQMNSLKPEDTAVYYCAAQYFCYVYSYDYWGQGTQVTVSS | high polyreactivity
10 | QVQLEESGGGLVQAGGSLRLSCAASALTIEYNAKGSYRQAPAKERELVATISWSDSTRYADSVKGRLTISRDNAKSTVYLQMNSLKPEYTAVYDSNADVYWAWWEFDYWGQGTQVTVSS | low polyreactivity
11 | QVQLEESGGGLVQAGGSLRLSCAASGFIFSWYVMGWYRQAPGKERELVAAISQSGGDTYYADSVKGRFTISRDNAKNTVYLQMNSLKPEDTAVYYCAVGRVGRFYYWGQGTQVTVSS | high polyreactivity
12 | QVQLEESGGGLVQAGGSLRLSCAASGFTFGVYPMGWYRQATGKEREFVADITYSGGSTYYADSVKGRFTISRDNAKNTVYLHMNSLKPEDTAVYYCAAGYVYTWYGEYVVGYDYWGQGTQVTVSS | high polyreactivity
13 | QVQLEESGGGLVQAGGSLRLSCAASGFTFHPNAMGWYRQAPGKERELVAAIRYSTGRTYYADSVKGRFTISRDNAKNTVYLQMNSLKPEDTAVYYCAREALQYPGLKYNYWGQGTQVTVSS | low polyreactivity
14 | QVQLEESGGGLVQAGGSLRLSCAASGFTFIRYAMGWYRQAPGTERELVAAIRGTGTSTYYADSVKGRFTISRDNAKNTVYLQMNSLKPEDTAVYYCNKVAGRSPYTRYDYWGQGTQVTVSS | low polyreactivity
15 | QVQLEESGGGLVQAGGSLRLSCAASGFTFRKNAMGWYRQAPGKERELVAAISSGGGRTYYADSVKGRFTISRDNANNTVYLQMNSLKPEDTAVYYCAVSIGRYPYRYGYWGQGTQVTVSS | high polyreactivity
16 | QVQLEESGGGLVQAGGSLRLSCAASGFTFTDYAMGWYRQAPGKERELVAVITYDSTYYADSVKGRFTISRDNAKNTVYLQMNSLKPEDTAVYYCAADSYDWGDFDYWGQGTQVTVSS | low polyreactivity
17 | QVQLEESGGGLVQAGGSLRLSCAASGFTFVPYAMGWYRPAPGKETEFVAALFSDGSTYYADSVKGRFTISRDNAKNTVYLQMNSLKPEDTAVYYCAAAGESSRTGHFDYWGQGTQVTVSS | low polyreactivity
18 | QVQLEESGGGLVQAGGSLRLSCAASGFTFVSYAMGWYRQAPGKERELVAAISRRGGRTYYADSVKGRFTISRDNAKNTVYLQMNSLKPEDTAVYYCNKDYYGSPSSYYWYDYWGQGTQVTVSS | high polyreactivity
19 | QVQLEESGGGLVQAGGSLRLSCAASGFTFYDYAMVWYRQAPGKERELVAAIRRSGTRTYYADSVKGRFTISRDNAKNTVYLQINSLKPEDTAVYYCAARYSYTHQRDYWGQGTLVTVSS | high polyreactivity
20 | QVQLEESGGGLVQAGGSLRLSCAASGFTFYSYVMGWYRPAPGKVTELVAAIYWSGGSTYYADSVKGRFTISRDNAKYTVYLQMNSLKPEDTAVYYCAARRYASRNGYLYDYWGQGTQVTVSS | high polyreactivity
21 | QVQLEESGGGLVQAGGSLRLSCAASGGIFYEYAMGRYRQAPGKERELVATISFNVASTYADSVKGRFTISRDNAKNTVFLQMNSMKPEDTAVYYCIADTYWYRDSRYDYWGQGTQVTVSS | low polyreactivity
22 | QVQLEESGGGLVQAGGSLRLSCAASGIIFILYTMGWYRQAPGKERELVATISSGGGSTFYADSVKGRFTISRDNAKNTVYLQMNSLKPEDTAVYYCAAEQLYYGERYYIWGYYYWGQGTQVTVSS | low polyreactivity

Row | Sequence | polyreactivity (PSR sort gate)
23 | QVQLEESGGGLVQAGGSLRLSCAASGIIFRFYTMGWYRQAPGKERELVAVITWSGGSTYYADSVKGRFSISRDNAMNTVYLQMNSLKPEATAVYYCNAEYTYGNSVYKYDYWGQGTQVTVSS | low polyreactivity
24 | QVQLEESGGGLVQAGGSLRLSCAASGIIIATYAMGWYRQAPGKERELVAVISNDGSTHYADSVKGRFTISRDNAKNTVYLQMNSLKPEDTAVYYCNAEEIDEASYAYPPLEYDYWGQGTQVTVSS | low polyreactivity
25 | QVQLEESGGGLVQAGGSLRLSCAASGINFSVYGMGGYRQATGKERELVASITKSGGTTYYADSVKGRFTISRDNAKNTVYLQMNSLKPEDTAVYYCAAAWSDKRVLSVYYAYYWGQGTQVTVSS | high polyreactivity
26 | QVQLEESGGGLVQAGGSLRLSCAASGITFFWNAMGWYRQAPGTERELVAVISSGGSTKYSDSVKGRFTISRDNAKNTVYLQMNSLKPEDTAVYYCAAAVRVGTRQYGYWGQGTQVTVSS | high polyreactivity
27 | QVQLEESGGGLVQAGGSLRLSCAASGITFRQYAMGWYRQAPGKERELVATISSGDDTYYADSVKGRFTISRDNAKNTVYLQMNSLKPEDTAVYYCAARYWTSIVRYRGDYWGQGTQVTVSS | high polyreactivity
28 | QVQLEESGGGLVQAGGSLRLSCAASGITFSGNAMGWYRQAPGKERELVATISQSGGRTYYADSVKGRFTISRDNAKNTVYLQMNSLKPEDTAVYYCARRRLRYTDRGYYYWGQGTQVTVSS | high polyreactivity
29 | QVQLEESGGGLVQAGGSLRLSCAASGLTFRIYAMGWYRQAPGKERELVAAISYRGGSTYYADSVKGRFTISRDNAKNTVSLQMNSLKPEDTAVYYCAAGFVLNGIRYDFWGQGTQLTVSS | high polyreactivity
30 | QVQLEESGGGLVQAGGSLRLSCAASGLTISWNAMGWYRQAPGKERELVAAISSRGGSTYYADSVKARFKISRDNAKNTVYLQMNSLKPEETAVYYCAAEGYTYYPVYSTRMYYWGQGTQVTVLS | low polyreactivity
31 | QVQLEESGGGLVQAGGSLRLSCAASGNILWKNAMGWYRQAPGKERELVAAITRSGGSTYYADSVKGRFTISRDNAKNTVYLQMNSLKPEDTAVYYCATRNLGYRPYRYDYWGQGTQVTVSS | high polyreactivity
32 | QVQLEESGGGLVQAGGSLRLSCAASGRIFGGYAMGWYRQAPGKERELVAAITSSGSTNYADSVKGRFTISRDNAKNTVYLQMNSLKPEDTAVYYCATDFKTVYYWWGMDYWGQGTQVTVSS | low polyreactivity
33 | QVQLEESGGGLVQAGGSLRLSCAASGRIFYGNSMGWYRQAPGKERELVAAISKRGGSTYYADSVKGRFTISRDNAKNTVYLQMNSLKPEDTAVYYCAASYPTRAWEYDYWGQGTQVTVAS | high polyreactivity
34 | QVQLEESGGGLVQAGGSLRLSCAASGRIGAYAMGWYRQAPGKERELVAGITSNGASTYYADSVKGRFTISRDNAKNTVYLQMNSLKPEDTAVYYCAARYRFQRGGYYYWGQGTQVTVSS | high polyreactivity
35 | QVQLEESGGGLVQAGGSLRLSCAASGRIRYYAMGWYRQAPGKERELVAAISSTGGSTYYADSVKGRFTISRDNAKNTVYFQMNSLKPEDTAVYYCNVAWIWGKYEYWGQGTQVTVSS | high polyreactivity
36 | QVQLEESGGGLVQAGGSLRLSCAASGRISESNDRGWYRQAPGKERQLVAAISSSGGSTYYADSVKGRFTISRDTAKNTVYLQLNSLKPEDTAVYYCAREYIFSVYDYSTSYYYWGQGTQVTVSS | low polyreactivity
37 | QVQLEESGGGLVQAGGSLRLSCAASGRNFSVYAMGWYRPAPGKERELVARIRSGGSTYYADSVKGRFTISRDNAKNTVYLQMNSLKPEDTAVYYCAADGFASRWYAYYYWGQGTQVTVSS | high polyreactivity
38 | QVQLEESGGGLVQAGGSLRLSCAASGRTFPLYVMGWYRQAPGKEREWVAAISARGGSTYYADSVKGRFTISRDNAKNTVYLQMNSLKPEDTAVYYCATLVTNGRYDSWGQGTQVTVSS | high polyreactivity
39 | QVQLEESGGGLVQAGGSLRLSCAASGRTFQYYTMGWYRQAPGKEREFVAAIRDSGGSTYYADSVKGRFTISRDNAKNTVYLQMNSLKPEDTAVYYCNKVPNGPSNYDYWGQGTQVTVSS | high polyreactivity
40 | QVQLEESGGGLVQAGGSLRLSCAASGRTFRYNAMGWYRQAPGKERELVVAINWSGGSTYYADSVKGRFTISRDNAKNTVYLQMNSLKPEDTAVYYCAAEPTGWVWYAGYGYYWGQGTRVTVSS | high polyreactivity
41 | QVQLEESGGGLVQAGGSLRLSCAASGRTFVFNAMGWYRQAPGTERELVASINSRVGSTYYADSVKGRFTISRDNAKNTVYLQMNSLKPEDTAVYYCAARSYSSYYYWGQGTQVTVSS | high polyreactivity
42 | QVQLEESGGGLVQAGGSLRLSCAASGRTSRSYTMGWYRQAPGKERELVAAITRGGRTYYADSVKGRFTISRDNANNTVYLQMNSLKPEDTAVYYCDTVRVQSYGYWGQGTQVTVSS | low polyreactivity
43 | QVQLEESGGGLVQAGGSLRLSCAASGSIFAPYVMGWYRQATGKERELVAAITESGGRTYYADSVKGRFTISRDNAKNTVYLQMNSLKPEDTAVYYCAARTYDRNRQLRRQWYDYWGQGTQVTVSS | high polyreactivity
